What was measured:
Settings in all cases: remark: other sources report otherwise
[1] = molecular target: T1, recombinant soluble homotrimeric HA of A/Anhui/1/05 (H5N1) (Influenza A virus A/Anhui/1/2005(H5N1)); assay: trimeric HA microarray, transfection supernatant set 3
[2] = molecular target: T2, recombinant soluble homotrimeric HA of A/California/4/09 (H1N1) (Influenza A virus A/California/04/2009(H1N1)); assay: as above
[3] = molecular target: T3, recombinant soluble homotrimeric HA of A/Egypt/3300-NAMRU3/08 (H5N1) (Influenza A virus A/Egypt/3300-NAMRU3/2008(H5N1)); assay: as above
[4] = molecular target: T4, recombinant soluble homotrimeric HA of A/Indonesia/5/05 (H5N1) (Influenza A virus A/Indonesia/5/2005(H5N1)); assay: as above
[5] = molecular target: T5, recombinant soluble homotrimeric HA of A/Japan/305/57 (H2N2) (Influenza A virus A/Japan/305/1957(H2N2)); assay: as above
[6] = molecular target: T6, recombinant soluble homotrimeric HA of A/Netherlands/219/03 (H7N7) (Influenza A virus A/Netherlands/219/03(H7N7)); assay: as above
[7] = molecular target: T7, recombinant soluble homotrimeric HA of A/Solomon Islands/3/06 (H1N1) (Influenza A virus A/Solomon Islands/3/2006(H1N1)); assay: as above
[8] = molecular target: T8, recombinant soluble homotrimeric HA of A/South Carolina/1/18 (H1N1) (Influenza A virus A/South Carolina/1/18 (H1N1)); assay: as above
[9] = molecular target: T9, recombinant soluble homotrimeric HA of A/Vietnam/1203/04 (H5N1) (Influenza A virus A/VietNam/1203/2004(H5N1)); assay: as above
[10] = molecular target: T10, recombinant soluble homotrimeric HA of A/chicken/Vietnam/NCVD-016/08 (H5N1) (Influenza A virus A/chicken/Vietnam/NCVD-016/2008(H5N1)); assay: as above
[11] = molecular target: T1, recombinant soluble homotrimeric HA of …; assay: trimeric HA microarray, transfection supernatant set 4
[12] = molecular target: T2, recombinant soluble homotrimeric HA of …; assay: as above
[13] = molecular target: T3, recombinant soluble homotrimeric HA of …; assay: as above
[14] = molecular target: recombinant soluble homotrimeric HA of A/Hong Kong/1073/99 (H9N2) (Influenza A virus A/Hong Kong/1073/99 (H9N2)); assay: as above
[15] = molecular target: T4, recombinant soluble homotrimeric HA of …; assay: as above
[16] = molecular target: T5, recombinant soluble homotrimeric HA of …; assay: as above
[17] = molecular target: T6, recombinant soluble homotrimeric HA of …; assay: as above
[18] = molecular target: T7, recombinant soluble homotrimeric HA of …; assay: as above
[19] = molecular target: T8, recombinant soluble homotrimeric HA of …; assay: as above
[20] = molecular target: T9, recombinant soluble homotrimeric HA of …; assay: as above
[21] = molecular target: T10, recombinant soluble homotrimeric HA of …; assay: as above
[22] = molecular target: recombinant soluble homotrimeric HA of A/northern shoveler/California/HKWF115/07 (H6) (Influenza A virus A/northern shoveler/California/HKWF115/2007(H6N1)); assay: as above
[23] = molecular target: recombinant soluble homotrimeric HA of A/Wisconsin/67/05 (H3N2) (Influenza A virus A/Wisconsin/67/2005(H3N2)); assay: as above
[24] = molecular target: T11, recombinant soluble homotrimeric HA of A/duck/Yangzhou/02/05 (H8N4) (Influenza A virus A/duck/Yangzhou/02/2005(H8N4)); assay: as above
[25] = molecular target: recombinant soluble homotrimeric HA of A/swine/Ontario/01911-2/99 (H4N6) (Influenza A virus A/Swine/Ontario/01911-2/99 (H4N6)); assay: as above
[26] = molecular target: recombinant soluble homotrimeric HA, A/swine/Ontario/01911-2/99 H4N6 (Influenza A virus A/Swine/Ontario/01911-2/99 (H4N6)); assay: microarray, transfection SN IgG, trimeric HA
[27] = molecular target: T11, recombinant soluble homotrimeric HA of …; assay: trimeric HA microarray, transfection supernatant set 2

Row | Binder | Trimeric HA Binding: RLU [1] [RLU] | Trimeric HA Binding: RLU [2] [RLU] | Trimeric HA Binding: RLU [3] [RLU] | Trimeric HA Binding: RLU [4] [RLU] | Trimeric HA Binding: RLU [5] [RLU] | Trimeric HA Binding: RLU [11] [RLU] | Trimeric HA Binding: RLU [12] [RLU] | Trimeric HA Binding: RLU [13] [RLU] | Trimeric HA Binding: RLU [14] [RLU] | Trimeric HA Binding: RLU [15] [RLU] | Trimeric HA Binding: RLU [16] [RLU] | Trimeric HA Binding: RLU [17] [RLU] | Trimeric HA Binding: RLU [18] [RLU] | Trimeric HA Binding: RLU [19] [RLU] | Trimeric HA Binding: RLU [20] [RLU] | Trimeric HA Binding: RLU [21] [RLU] | Trimeric HA Binding: RLU [22] [RLU] | Trimeric HA Binding: RLU [23] [RLU] | Trimeric HA Binding: RLU [24] [RLU] | Trimeric HA Binding: RLU [25] [RLU] | other results
1 | TCN-523 (5248_A17) (antibody, V domains shown) VH: QVQLVQSGAEVKKPGSSVKVSCKASGGSFSNYAFSWVRQAPGQGLEWMGGTIPLLGTTNYAQKFQGRVTISADQFTSTAYMELGSLRSEDTAVYYCTRRKMTTAFDSWGQGTLVTVSS VL: QPVLTQPPSASASLGASVTLTCTLSSAYSNYKVDWYQQRPGKGPRFVMRVGTGGIVGSKGDGIPDRFSVLGSGLNRYLTIKNIQEEDESDYHCGADHGSGSNFVSPYVFGGGTKLTVL | 546 | 19400 | 29100 | 22000 | 4550 | 48 | 28800 | 33400 | 24600 | 24500 | 3840 | 443 | 371 | 23000 | 30900 | 24000 | 25100 |  |  |  | Trimeric HA Binding: RLU [6]: 3140 RLU; Trimeric HA Binding: RLU [7]: 11000 RLU; Trimeric HA Binding: RLU [8]: 23700 RLU; Trimeric HA Binding: RLU [9]: 22100 RLU; Trimeric HA Binding: RLU [10]: 18900 RLU
2 | TCN-536 (5095_N01) (antibody, V domains shown) VH: QVQLQQWGAGLLKPSETLSLTCAVYGGSFSVSGYYWSWIRQPPGRGLEWIGEISHGGSTNYNPSLKSRVTISVDTTKNQFSLRLSSVTAADTAVYYCARGTDPDTEVYCRVGNCAAFDYWGQGSLVTVSS VL: EIILAQSPGTLSLSPGERATLSCRASQFVSTRSLAWYQQRPGQAPRLLIYGASSRATGIPDRFSGSGSGTDFTLTISRLEPEDFAVYYCQHYGYSPRYAFGQGSKVEIK |  |  |  |  |  | 18 | 49 | 97 |  |  | 260 | 246 |  | 39 | 182 | 19 | 95 | 20600 | 48 | 168 | 
3 | TCN-504 (3251_K17) (antibody, V domains shown) VH: QVQLQESGPGLVKPSETLSLTCAVSGVSISNIDFYWGWIRQPPGKGLEWIGNIYYTGITFYNPSLSSRVAISIDTSKNQFSLTLTSVTAADTAMYYCARHYGDSEAINDAFDIWGQGTMLTVSS VL: EIVMTQSPATLSVSPGERATLSCRASQSVGNSLAWYQQRPGQAPRLLIYGASTRATGIPPRFSGSGSGTEFTLTISSLQTEDFAVYYCQQYINWRPLSFGGGTKVEIK | 30000 | 18600 | 18000 | 18600 | 36000 | 14100 | 549 | 24800 |  | 18200 | 19600 | 6710 | 14600 | 21700 | 25700 | 19200 |  | 20600 | 19900 | 21800 | Trimeric HA Binding: RLU [26]: 54800 RLU; Trimeric HA Binding: RLU [27]: 17800 RLU; Trimeric HA Binding: RLU [6]: 19600 RLU; Trimeric HA Binding: RLU [7]: 32700 RLU; Trimeric HA Binding: RLU [8]: 27600 RLU; Trimeric HA Binding: RLU [9]: 13300 RLU; Trimeric HA Binding: RLU [10]: 10300 RLU
4 | TCN-534 (5249_B02) (antibody, V domains shown) VH: QVQLVQSGAEVKKPGSSVKVSCRESGGTFNGYTITWVRQAPGQGLEWMGGIIPMMGTVNYAQKLQGRVTITTDYFTKTAYMDLNNLRSEDTAMYYCVKIRYTGQQLLWGQGTLVTVSS VL: DIQMTQSPSTLSASIGDRVTITCRASQSIASWLAWYQQKPGKAPKLLIYEAVNLESGVPSRFSGSGSGTDFTLTISSLQPDDFATYFCQHYGTISQTFGGGTKVEIK |  |  |  |  |  | 20 | 27000 | 8310 | 731 | 948 | 14700 | 361 | 60 | 11800 | 23700 | 11400 | 21300 |  | 79 | 264 | 
5 | TCN-535 (5246_P19) (antibody, V domains shown) VH: QVQLVQSGSEVKKPGTSVKVSCTASGSVFTNYGISWVRQAPGQGLEWMGGIIPLFGAAKYAQKFQGRVTITADESTKTVYMELSRLTSKDTAIYFCAKAPRVYEYYFDQWGQGTPVTVSS VL: EIVLTQSPGTLSLSPGERATLSCRASQSVSSSQLAWYQQKPGQAPRLIIYGASTRATGIPDRFSGSGSGTDFTLTIGRLEPEDFAVFFCQQYSTSPPTFGQGTKVDFK |  |  |  |  |  | 24 | 25200 | 25300 | 21200 | 18200 | 21500 | 159 | 836 | 22400 | 25200 | 20900 | 18100 | 4450 | 428 |  | 
